From paper PMC6271157, “High Efficiency Acetylcholinesterase Immobilization on DNA Aptamer Modified Surfaces”

Assays:
[1] = biological target: T1, acetylcholinesterase (AChE) (electric eel, UniProt O42275 24-633); experiment: ELONA; low ionic strength ~0.02 M, no NaCl, 4 mM MgCl2; 8 mM Na2HPO4, 2 mM NaH2PO4, 2.7 mM KCl, 137 mM NaCl, 4 mM MgCl2, pH 7.4, room temperature, 2 h; wells coated with 10 nM AChE, blocked with 1% BSA; washes with 0.05% Tween 20; conditions: protein: native; label: 5'-biotin, detected by streptavidin-HRP
T1 sequence (O42275 24-633): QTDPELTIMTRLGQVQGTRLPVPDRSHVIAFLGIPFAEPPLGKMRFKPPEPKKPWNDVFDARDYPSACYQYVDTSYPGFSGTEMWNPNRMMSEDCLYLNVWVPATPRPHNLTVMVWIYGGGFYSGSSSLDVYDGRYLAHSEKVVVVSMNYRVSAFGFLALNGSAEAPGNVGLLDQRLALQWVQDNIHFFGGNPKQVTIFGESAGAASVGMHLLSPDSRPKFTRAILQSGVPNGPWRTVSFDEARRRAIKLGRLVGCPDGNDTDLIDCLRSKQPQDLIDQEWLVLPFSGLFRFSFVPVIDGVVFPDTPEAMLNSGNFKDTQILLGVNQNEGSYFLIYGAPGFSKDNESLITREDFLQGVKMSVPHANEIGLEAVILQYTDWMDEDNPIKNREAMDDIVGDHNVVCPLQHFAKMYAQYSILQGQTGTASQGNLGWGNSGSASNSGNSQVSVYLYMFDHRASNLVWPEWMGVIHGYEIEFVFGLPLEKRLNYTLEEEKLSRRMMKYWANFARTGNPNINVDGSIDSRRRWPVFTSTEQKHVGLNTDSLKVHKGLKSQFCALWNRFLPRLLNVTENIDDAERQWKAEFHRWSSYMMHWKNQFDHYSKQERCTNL

[2] = biological target: T1, acetylcholinesterase (AChE); experiment: ELONA; selection buffer, ionic strength ~0.15 M, 137 mM NaCl, 4 mM MgCl2; 8 mM Na2HPO4, 2 mM NaH2PO4, 2.7 mM KCl, 137 mM NaCl, 4 mM MgCl2, pH 7.4, room temperature, 2 h; wells coated with 10 nM AChE, blocked with 1% BSA; washes with 0.05% Tween 20; conditions: protein: native; label: 5'-biotin, detected by streptavidin-HRP

B1: R15/19 (also R15/C19) (ssDNA)
DNA: AAGCATCCGCTGGTTGACTGTAGCTCTGGCAGACGTAGTGTGAAGGTACCAGCTATTGGGATCTTGGACCCTGCGAA
modifications: 5'-biotin (ELONA)
Kd [1]: 0.243 ± 0.047 nM | Kd [2]: 0.157 ± 0.042 nM
